In this assay the target is streptavidin (coated on iron oxide particles or on fluorescently-labeled polystyrene particles), P22629. Put plainly: cell-based or functional assay.
Sequence of streptavidin (coated on iron oxide particles or on fluorescently-labeled polystyrene particles), P22629 (P22629 37-163 limits assumed): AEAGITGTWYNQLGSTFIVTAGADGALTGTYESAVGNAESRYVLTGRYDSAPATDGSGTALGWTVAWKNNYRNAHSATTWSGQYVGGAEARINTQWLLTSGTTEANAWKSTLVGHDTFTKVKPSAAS

B1: peptide HC260 (peptide)
peptide: MASGSDPSAQSQLPDKHSGLHERAPQRYGPEPEPEPEPIPEPPKEAPVVIEKPKPKPKPKPKPPAHDHKNQKETHQRHAAGSGGGGSPMLSENWLTNHPQNGGAGGAGMLSENWLTNHPQNGK
modifications: not checked
Take B1: the Color scale (0-5); sequential coloring of hair with streptavidin-coated iron oxide beads (color scale 0-5) came to 2.

The values are drawn from patent US20100247590A1, “Peptide-Based Systems For Delivery Of Cosmetic Agents” (JOHNSON & JOHNSON, priority 2009, published 2010).
